Measured values published in patent US20100047166A1 (published 2010).

Target: T1, 58P1D12 protein expressed on the cell surface (3T3-58P1D12, MDCK/58P1D12, OVCAR-5/58P1D12, xenograft cells) (human, UniProt Q9H9P2 22-273)
T1 construct: also called cell surface 58P1D12; 58P1D12-3T3
T1 sequence: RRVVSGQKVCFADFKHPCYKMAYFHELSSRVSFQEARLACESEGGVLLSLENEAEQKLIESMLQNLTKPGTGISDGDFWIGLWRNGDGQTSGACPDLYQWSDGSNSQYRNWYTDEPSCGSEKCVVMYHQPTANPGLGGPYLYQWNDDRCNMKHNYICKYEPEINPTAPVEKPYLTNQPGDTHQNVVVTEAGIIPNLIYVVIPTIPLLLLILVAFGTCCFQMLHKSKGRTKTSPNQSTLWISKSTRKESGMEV
Experiment: FACS saturation binding on 3T3-58P1D12 cells, one site binding fit

B1: 58P1D12 MAb Ha8-4c4.1 (hybridoma ATCC PTA-9404) (antibody, V domains shown)
VH: QVQLQESGPGLVKPSETLSLTCTVSGGSVSSGGYYWSWIRQPPGKGLEWIGYIYYSGGTNYNPSLKSRVTISVDTSKNQFSLKLTSVTAADTAVYYCARESGYCTNVACFPDAFDIWGQGTMVTVSS
VL: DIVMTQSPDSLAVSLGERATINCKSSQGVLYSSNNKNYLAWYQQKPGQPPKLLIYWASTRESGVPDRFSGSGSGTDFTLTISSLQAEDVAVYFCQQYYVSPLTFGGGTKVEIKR
notes: Fully human IgG1 kappa (gamma 1 kappa) from XenoMouse
- Kd: 3 nM
